According to the DeepSol protein solubility set:

Assay: soluble on expression in E. coli; label from the status in PepcDB or PDB records

Sequence | soluble on expression in E. coli
MGSDKIHHHHHHMKEWRRNILGRELVVQYGKVAKQSSGSALVRFGDTVVLATANISDKAVEGIDFVPLTVEFQERFYAAGKIPGGFIKREGKPSESAILSARLIDRPIRPLFPKKLRNEVQVIVTVLSVDPNVPPDVVGIFAASLALNVSKIPFEGIVAGIRVGYRDGQFIALPSEEDIEKGLMDITVAGTKDAVTMVEGEAKEVTEEDMVKALRFAHSVIKELVDFQEEILSEFNVEKIPVVEPTPPEGLVEAFKDLLNKEELERRILVKVKKEREVALKEYEEQLLNQIAEKLSVTDLEGIKPFVSELYEDAVKKTMRRLIVEKGIRADGRKPTEIRPISCEVGLFPRTHGSALFTRGETQSLGIVTLGAPMDVQIIDTLLEEGVKRFMLHYNFPPFCTGEVKPLRGPSRREIGHGHLAERALKNMLPPEEEFPYTIRVVSEILESNGSSSMATVCSGSLALMDAGVPIKKHVAGIAMGLILEEDAEIILTDIIGMEDHYGDMDFKVAGTRDGITAFQMDCKVSGVSDELLMKALMQAREARMYILDRMYETISAPRPHLSKYAPIIKVTKVDPEKVADVIGPGGRVIKKIIKDFDVKVEIDDETGLVKVVGSSEENVDKAIELIREIAKEIEVGEVLEGKVTRIEPYGLFIEVRPGKIGLLHQSKVGEDMRQFLKKVKVGDTIKVQVINIDDLGRLQFKRVTEGENTQHGKTHSKRN | not soluble
TMEIPINRTYSCFLEGPEAPKTPACQAAKQAGGTQAMYDWNGINQNPSGDNHQAVVPDGTLCGGGKAEFKGFNLAREDWRTTNIVPDANGNYEFIYKATAPHATKYFKFYVTKNGWNPTQALKWSDLELFGTVNGNPQQDAGKRYHMTLKLPQGKTGKHIIFNVWKRSDSEEAFYSCSDVNFGG | not soluble
RGFQHGIRHNVEQFGMGTSAISFSTWRTSKEYGGYPKDRYIELTPADCDYLVKLNPDLIKGAAYYTNQWSYDVQYEDRTHSTPTKAVSGEYGNMVKTHLIEGRFLSTSDDAMKRKVIVLCEQTADVLFGESISPIGKYVNLSQIPFLVVGVCKGEQGQFSPNYIPFATYSGIFAKGFSLDCTLFMNCPSVRTEENVERLKVLLNRQLAFRKGYDPTDMEVPYVDAPVTDIKMMDKIFNGMD | not soluble
MGSDKIHHHHHHMNQSETDMIERIFTATDALMATVGLPNLSMHKIAREAKISPGTIYIYFKNKEELLTQFARYIFQNFQDVLKEGYDERQPFFQQYRKMWWNIWHFLEAEPTIMANMGQYESLPGFSDICQKWESDSIWYHFCVKAKAAGELADVPPPILFAISLESAFNIAFKCRHFCAQVSMEMLEAVIERTWLAIKN | not soluble
MNKTMAKSLSVIIPACNEVDTISDVIQSVRPLNPVEIIVVANGCNDGTEDVADRLGCKVIKHTELLGNDVGRAVGAKHAIGDVLLFIDGDFAIPTSKLKLFLNPILYDQADVVLNNLDALFLKRQKTTSITVWRQILNAMLEREELKMNSLLDVPHALTKEVVQSIGYECFVNPIVAHLRLVQSKWRISRHCAIDVITPNKFRPFQHAAYGTNLSQSEKRMIGDHIEAVAERILSSDERGGYYDGNRKRDSVYHTLSFEEFYQGWGVTSDFYKGKQLSVVIPVQDEEKTIGNVIEELRKIEPFEIIVVVNGSSDKTKKIAKDKGATTIVYKEALGNDVGRSLGTYFAKGEIVLFIDGDFVIPASELYPFAKAIADGTDVALNDLNHYLDLRVPLHLVTAFKYALNLACDRKDLGVGSLIAVPNAFSRKCLKEIGYRSLLAPCVAQVKAILSGFEVACVSRVEVDKMNRIRPSEHFAKIGHPPAVLRIIGDHIEGLDQIIALTDNRGGFYDGNRKRDVLLEHHHHHH | not soluble
MESKLNLDFNLVEKARAKAKAIAIDTQEFIEKHTTVTVERAVCRLLGIDGVDTDEVPLPNIVVDHIKENNGLNLGAAMYIANAVLNTGKTPQEIAQAISAGELDLTKLPMKDLFEVKTKALSMAKETVEKIKNNRSIRESRFEEYGDKSGPLLYVIVATGNIYEDITQAVAAAKQGADVIAVIRTTGQSLLDYVPYGATTEGFGGTYATQENFRLMREALDKVGAEVGKYIRLCNYCSGLCMPEIAAMGAIERLDVMLNDALYGILFRDINMQRTMIDQNFSRIINGFAGVIINTGEDNYLTTADAFEEAHTVLASQFINEQFALLAGLPEEQMGLGHAFEMDPELKNGFLYELSQAQMAREIFPKAPLKYMPPTKFMTGNIFKGHIQDALFNMVTIMTNQRIHLLGMLTEALHTPFMSDRALSIENAQYIFNNMESISEEIQFKEDGLIQKRAGFVLEKANELLEEIEQLGLFDTLEKGIFGGVKRPKDGGKGLNGVVSKDENYYNPFVELMLNK | soluble
MLRKADIKDLNACLSLFEQSVKTLCAKDYTKDQICAWIKIDRQQWEEKFKYDEIFVYEKRGKIASFISVKQEQKLLDLLFTHPDFVRQGLAQNLLDFILKTYLHNEIYTFASLSAKDFFLKNGFELIRENKVIKEGQNLKKILMKKDVIYKN | not soluble
